Assay: soluble on expression in E. coli; label from the status in PepcDB or PDB records

Sequence	soluble on expression in E. coli
MAHHHHHHMKKRYGNAGDWAVVTGASEGIGYAMALDLGRRGFNVCVIARTLSKLENVVEELKQLGVQGKAISFDFASATPKQYDDMFAELDKIEIAVLVNNVGVNYTYTNYFDEVDLETDLRLLKVNCESSVRMTKYVVPKMKAKRCGAIVMLGSVSAVTPAPLLCTYAGTKAFNLSFGSGLYYELKQFGIDVLAVSPNMVVSKMTQGLSSRKPRETFLMVNADRMAHQTLDKLGSVPQTPGHCNHAVLEAIVRALPTGYVSNKILETHKSIKRKAERKRE	not soluble
MAHHHHHHMKLFLTVVERHNSTNSSDVTPTDDVALFDPGVWSRTATSEMARRNVSASYVAQQVYRHAALTQLAKVALSSAVCFRYGPRPPPHLDSFLFHKRCRPTGHGRCGTPPAAAAPPVCAPSPLISSSSSSFSVNMAATSPGTGQQRSTAAGASDSATEYDSLLALWLRELLSGTDSSVTVTALLLFVEGTAIDMATGSKVHTPLNIGSGTARQLRTHEDAMAFLHACESTLHHSAAEFPRCPYHVCVAVLVGTHGGSHGKNPVIFLDVAAAAPESAGAHQEVRLREQVALFGRQLGADATTATPHARQRTRKAEDEQWLSLLQSCQLSRASLVGLVYVACEAGHDPFGHSRVEGTDCDPFTLASVLRQRALLEAVNNGVLHPQLRKLSRARNRATARAVKLPASGATTRSRAPASPLKGRPSRGRQRPQQHSPKLPYLARDSVPPRRTQEHSIVFYGVSRCGRSADLLARIEEEEHHARVALSSAEQRAWNLAELRWILRAHPPGKSIDAMLRRFAHNVDGVSRPEQQHPHSVPPRFLPPPLNVAQLATAISRPSTTATRRSSFASATRTPESTSPGGTVRTRVTASMLPTSPSRLALTSTFFTRRITTPLFFREAGSPPQNQDDPRAHSASSHVAVRGHNATELERRRLKSGATFSLATDSPNARACTTARRLSAIETALLARAHSSSQRSLPSPSPCTGEVERLYPLVRAFHVEMCEQDALMAEELMMRSCIEHKEKNCRKTLSVARAESVRRLSVWWPSETGTQPQREPQVPDSPRWRPAKPLPLRIFFQQ	not soluble
MAHHHHHHMKNFASWALRLHQDGISEERPQLGKQLYDKVCTVQTVKDYPGLRFKDMKEAIGFPIKRDDMFLPASMKEKRQQQQQIGVPPRRSQCFTCGQLGHYSNTCGVFKHKLNTRQKSDIQFKKQ	not soluble
MAHHHHHHMKNTVVRIKAELENVKRLFCDDEYLWIFNIRDSTSSLTRDNIQFRKTDILEIPNSRGTANFMIKWTEYPKYSTINFVNTKNSCSYEEVNNNEWRDFASFECRGIELIDFFPSNNFIVEDTKGKLYYDVNLSDQNWCDYNEEHEMCVGIYNLEYEVN	soluble
MAHHHHHHMKSTRTTAKVRPACLPYSTTMRSSRQTSSLLSRVAHSVGAVVAKANLLRQSPSREAHRPSGPAEGLRPSSSSAKPPVLASGDILRDLAFFTQASEVGFFSTHPSLCAQVFGVVPGDVFEVGGGCAVTSSSVVDVDAGSRMAREAIVVVGARSGKLWVWAYGDEAARVLRVPSSTTSAMLSSAVEVRAAIVEHYQLRQLVHPSRRQCSAGGGKAMEQDAQVEFARTVCEAFQSLCARAHEEVQRLYTPDQLAFLQRAPDLYAAATKRVDRVASSLDDASPTAGVNSEPQRQQPNHPPDGSSSFLPRSIYSDIARHAQHAAAVVLLAPRVSLVTGAVGWVGEGDVVLADSLVSQGGCAEASLSASVVI	soluble
MAHHHHHHMKTCKTGIQKVRDVSEATVLVLDWFERRNKPATPQSLADALGSRVAKSLLQKILEQLHAEEKLHVKDMKKIRFYYRRVLPLSDADGATTTKQHSEPEDDPAATTGERGNAVNVPEVCGGAETCAESPADAHAALLHAVAISAVQLSERSLRLTRWRGWPSSTERADKYADLAREVCELRNSLERLQSRHAGESAEAHGGGSWTSRVRRAVCRYRRARRHWVQRKDWAMCLLEATAGDAHTPLQAAALLGCTTDAEAGVSFEDTAVALPAPLMRELNLSQR	not soluble
MAHHHHHHMLDDLKTAYTPAVASKICYVASQLRIDATKGQPYTAVLEATMTAEGEQAMEVASLARIVHSCLVLRSGHLHEVLFTFIPFLREKAGTMDAVTTAVLINAYGRSGVHHPGLYKALCDNGATVLKDPRVPLAHIANVAYAVSRVKFLHPALMLTLRDHALRKVAEASPIISLTVLDAFTELRQIDDDLFNAYEQRLLGQLNELQAPLMASLVSCVVRAGRGKAEVMESLGARTVAIADTFDAASIAKVTNAYYEADVASEDVLGALAERACKVAADFRADEIATVLNALSAFDLFDAELFPLLASRLVALHRQGGYVDVADAAVILSSFAAVQERNDELIYVCTQLFAAYPGVAMDPAVRVNALWACASLNVHNEAQTKMLEEVRATPSLVMWESKTDTLPKAKATLEERTRFLAKVYGITISSSGAR	soluble
MAHHHHHHMLGACYPIPSGISLSLSRSRAYDVVYHYTRAAHIRLRLHGSGHSGEHMAAAEQRTCRPHLLWRLDGRPHADSIGHGLADDTRLCARVDLRRMLVACPRWGQSRAFIPQSRRLRALPRDGLRACLRGAVLPSGLATVTMVADDTT	not soluble
MAHHHHHHMLLFKRPHLRACESHADIAVDLAPLSQLRNYAEFEELLREELQKIYGNAPAEFHGVITYSTRDAPQSFRGCFTERQLETLHQYDAAVEKINHLSSEYRVALEEHERLVEGNKDRKPTQKRIREEEKSRKRLRAMKREVVAAEYNKECLSLKLKNLFSIDVIRVPLH	soluble
MAHHHHHHMLPAGLTLNTLTPLAQIPVELQRLARCAINAHRNAYCPYSKFAVGAALLHKDLKITAGCNYENCTLKGCCAELCAIVKGNSEGRRTATAVAVYGCSKAPDVMNLPPPDTVTPPCGFCRQSLVEVADLSNNYEDFLVVLVTLDKERVKLVKLCDIIPLKFGPSNIGMDLSQLAKDVELGNEDEKK	not soluble
MAHHHHHHMLRPTRVSRLVRSGSVALTPSCWTTKPAGWYLVPSSTLPATEELRVGKCFDFLNHSAQYLFLGQVMALAEEVKCIPWLEWFYSELHFSLPPTKEAELLANYMNDQERLRCGLRNHSEGGTSSSDIAWSRELKERVQRRAEEDFCWLLTHDQRKTEKFLQETFIQWHHRADYLVTRKSREKREFREDLTLQKVIQQGQERKRRMQRRRNRDEARQEAIKSGKESEWDNFTHDVLPRELREALDRESDGMEDVRLSRAGTATGGWSRSMRSHPNFR	soluble
MAHHHHHHMLRRSVVNLQNPARVFRSAAKRQKLDEAVRVDQAGEVAAVRICKYQLLWMSPLDSGVPVVKEILRDELVHEEVMGHLARKHSVRLTLLDPLFHVGAFVMGSCTALLGKDAVMCCHAAVEVTIAQHYNDQLRELQSLEESEGASKGKDEKDWAEVMEYVARFRDEELHHQELGEQNGAENAPAYPLLYNGIRIMCSLGVALAKRI	not soluble
MAHHHHHHMMLHTRRTVYSCICVHTHTHTHTCGCPPPTLSQKKKRSRLFMSSSSGDEYDPAEVTVHTTVASPSLSDTVVPSAAPFLRSAAGNASAATVAAAPALASLPKTAASVLPSSSSPTPPNTGNDVDGGYRLHSNIKGRIRCLTLNTAGTTLCAGSEDGQLCMWDFTVPLKSYRVQPTRVLTPFVNRISGLQPIIALTCASDDSYFVACQDGDSPVLVRASGEQLGYCAIGERGLMDVIQCKGHRAPVTCVAAHTHDAAAFFTGSQDGTVRLWNTATFKQRSVYAVKHGSGQLTDTHAVESVASLDSFHNGLGRVFASGGQDGRVQIWDSRVKYRPGGAIATVDMYAAAAPAGPDKVTEDPFMEKHVGGMMELHQKDAGASNASGSYGLAVRLGSAVKIIDLRQLSHSDGTTAPKAVLQEAATGLPHVLDTSALSIGRGGGSSTMMTCTSRVGYRHTKGGHVVQYRYADGDRLVPTLVWRAGKQDEDVLCACADISRADGCVFAGLSSGDVVVHGAFSSGAAAPQPMEAWLQTRPQREGYERAVGVKAPRAVEDDADLLRDLF	not soluble
MAHHHHHHMMRRMWVPTFSAQQQHLHHAMGLKMLTYASTPSGSGVTSAASNEEMNLHDAAAIAPGPYRRVGNIFIVHCDDHPFKHSWEVNRMLRELRLEFKGQTTIVPDIPQVRKRIWRVRHIVKVDVLDLDEAKALIGVPEHISFTDLASQLPPSFGRVKAVPSPVIRSKMNFMKLRRMRLRDVLHRDALELRLLELKRSAMKNAEQQKHAQK	not soluble
MAHHHHHHMNFLKRNATNICKGKVLGKHLNTSVQELTNLNKRKFSNIINLGKYGQRYQATHSGSIIGAKRFASGEAQKLSEVVKAEVQHEKSNYEAPDNIKKFLQTSGWKFEEQEGDVNMVLTKNVDGMKIIIDFQLVSPFQAEGENEAQAEMTDFSVTVEKPNKQGGITFYCTTLQNDEKFRYMIGNVKYYKNEEGKNSVSAYNGPEFEDLDDSLQTSLDEWLANLGVDSELCDFIDSCSIDKEQREYMSWLQNISNFIES	soluble
MAHHHHHHMNKMKSTKIENPKYKLMKLIGKGTFGKVYSAIDMSTQEAVAIKRSPKWRNKVSREVDLLKKMNGSTNIVKIKSVFYTTTKKGYRIQNIVFKYMTYSLGRYIRMKKQEKRENNQICIGIKDLHKNDFAHRDLKPDNILIDLDSSNIKIEICDLGSAKKVQRNIISIPYICSRWYRAPELLCGSMFYTTEVDLWSLGCIIFELINLCPLFPGKFKKDEYSEECSQIINLIEVIGSPQMSFFENIKDHTSKKNTLLIKELCELNIKPLCWDEILGNILEIENPNERLNIDAVLSNPYFSTLNK	not soluble
MAHHHHHHMNLIHICLFIIVIKCYVNCIKKNNKHIAYDKFYKQGSNTIVGSGNGSGDLLFLNNININKNVERKKNILAHSEIGTVRNIDDINLLNHNKKNEISFTKCKQIATIGPASENFEQLEKLYLNGIDVFRLNFSHGLKSIKKYIINSIRILEKKYDTTIGILGDIQGPKIRIGEFEKNQINENDNNTFVELKEGDLFSFDLMNSLGNQNRVQLNYPELIKNAKAGQIILLDDGNLKMKILENNYDTSNIQNSYIKVQVLTGGKLYSKKGFCIPNMIMPIDVLSEKDIKDILFCINEEVDFLGYSFVQTEYDLIFLRNIINDYYESDFYNNIKRKDRINFDQNNLQMKTFDDENDFYIKEVNDYYNNYYLKNVQKYKQIYDVYKNQDLYINDNIQNHYNKNIVTNIGDDKNIIDEQHIHNNNNNNIDNIMKNYSNLYNINKDHNKIAIISKIEKPSAIKNIENIIKLSDGIMIARGDLGIETNLSNLPILQKKLINLCRIKYNKPVIVATQMMESMRFLPSPTRAEVTDVATALYDGSDCVMLSAETATGQYPILTVSTQNKIIKDVENDYYYYEYTQRKNDKLKMLDHKNNCCHENKDIQQINKYNHEYIQNNKYEQDIQNNISYFDKLIFSIRDISNNINLKSIILFSNEFNKIQKLSNLRTKAPIIVITENKYLARKLQLTWGIYPHLSKKQNLFNHDLFSLINYGCDVSKKEGFVNSPDEYSLVTFSKNINSANLLYLCQPCLTN	not soluble
MAHHHHHHMNPHPVEPRDQIAELLVESPLFSFNCAHFIAFKGFRETLHGHNYNVSLRLRGNIQGDGYVIDFSILKEKVRKVCKQLDHHFILPMYSDVLNIQEVNDNFKITCEDNSEYSFPKRDCVQIPIKHSSTEEIGLYILNQLIEEIDLPFLKTRSVNYMEVTVSESPSQKATVHRNI	soluble
MAHHHHHHMNVALIFGITGQDGSYLSELLLEKGYTVHGVIRRCSSFNTKRIDHIFDQLNLHYGDVLDSSSICKLISKIKPHEIYNLAAQSHVKVSFELPVYTAETTAVGTLRILEAIKISNLPDVKFYNASTSELFGSSTDDRQHESTPFNPVSPYAIAKLYSHYITICYRKSYQMFCVNGILFNHESPRRGETFVTRKITRGVANICKNRQNCLVLGDLSTYRDWGHAKDYVRAMYLMLQQDEPDDFVISSNEKHTVKEFCEISFSFVGIFLKWKGTGIQEVGVDQHDRVLIKKDPRYYRECDVFHLHGDSSKARQKLQWAPTYSFFQLIYEMLTYDFEQCSLPIDDFDTCVSRYENYRGVPTK	not soluble

— the DeepSol protein solubility set
